Assay results taken from patent US20200190186A1.

What was measured:
[1] = target: mouse TIM3 (mouse) (UniProt Q8VIM0); test: binding to activated mouse T cells; method not stated
[2] = target: mouse TIM3 (mouse) (UniProt Q8VIM0); test: binding to activated mouse T cells, compared with TIM3.18 on human TIM-3

Sequence of mouse TIM3 (mouse) (Q8VIM0 20-281): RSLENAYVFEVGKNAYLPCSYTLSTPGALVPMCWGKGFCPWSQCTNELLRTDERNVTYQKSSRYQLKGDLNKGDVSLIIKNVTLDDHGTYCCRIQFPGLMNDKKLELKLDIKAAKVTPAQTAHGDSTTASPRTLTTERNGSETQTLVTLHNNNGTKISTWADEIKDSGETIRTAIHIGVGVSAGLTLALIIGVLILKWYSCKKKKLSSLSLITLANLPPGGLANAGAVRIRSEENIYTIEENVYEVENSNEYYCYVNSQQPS

RMT3-23, rat anti-mouse TIM-3 commercial antibody (Bio-X-Cell)
EC50 [1]: 1.7 nM
fold weaker EC50 than TIM3.18 on human TIM-3 [2]: 17 fold
